Assay results published in the domain aggregation screens of Martell et al. (2025).

Assay: soluble fraction after stress (log2 fold change); higher = more stays soluble; pooled small domains, quantitative proteomics
Settings: stress: 75 degC
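Further: 20 min heating vs room temperature control held 20 min.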

Row | Sequence | soluble fraction (log2)
1 | HMHHDDHNQQEEIKEKLLAMVADGERHHVTEVRQLDEDWDMVTKVMKELMDEEQLLMDGSYLILSA | 0.116
2 | HMHHSGLRQSQFDEISRQIRSLLEMESLSLQELKTRMEDVPEEQLTKVVSYLLSEEIIRQENGRLQ | 0.254
3 | HMHKAVVGPPNARKLAVTYGFKRWPALVFFRDGKYLGAVDGLRLWADLVREADEIMHSEPHYP | 0.0613
4 | HMHKFMEQNQDRRLSRMKELIGILSEAAKTYYQESREIMSNFQYDRMYDELLELEKETGVVMAGSPTQKV | -0.276
5 | HMHKKQEVQDSIDAAEEFMRASGVPAELITSKRAYAVKAIYADAVDKGTPDEIVKKDGMIVALISQMRS | 0.421
6 | HMHKLTIEEALNYKTPANAGGPYSGKPFRDIYDQRGKAAVISFAKYYLSKATPEDPMVEVYRTLLDGAMEL | -1.61
7 | HMHKREKSFFETIYDDIPGIGKKRRVQLLSAYPTLDSLKSVTLEELKQIVPEESAKLILEKRDSR | 0.0151
8 | HMHPARITATVRVGEGDLVDIEREAELGGPIHSKGVMILSSFLGARYARTVPLSLSASLVFEQSY | 0.0581
9 | HMHPDALTEREREVLSLLADGLSNREIAARLVLALGTVKWYISVIYSKLGVTRRTQAIARARELHLV | -0.0116
10 | HMHPEETVNLILDAAFRLFLEKGYEHTSIQDIIGQLGGLSKGAIYHHFNSKEDILIAVTDRMTA | -2.12
11 | HMHPEQTLEKIVDISAELFAKKGYEQTSIQDILDATGLSKGGLYHHFKSKEEILEAVMQKRVQY | -0.154
12 | HMHPFELNTVTEGQLKRLPFLSDLQIRELLEYRSRYGKMLTLYELKNVEAFDLETISLLVPFIYISEI | -1.36
13 | HMHPKTPDELLALMSEEQRGQIEQLAKLVLMAVSYSGASYYDAVTTMYPRMSEERRRIITHVLNTASP | -0.908
14 | HMHPLFRVVLAGEPNGVGLDDWLTRHEAELINGPSAIGVLTVKIAMGRRSFETVLDEIRADGETIFVEPV | -3.49
15 | HMHPTDMKLTARLEEGAQFVRTQQLSKAIEIFTEVIKLDQNWAEAWNKRATVFYMMGKFKQSQEDIDKVLA | 0.0611
16 | HMHPTEKNLTSLLADGSFYMNQNKLETAYDTFTKTIELDPSWAEAWNKRATVLYLMGKYELSQADIDQV | 0.0869
17 | HMHPVTGRIGTVTAANGLNLRADSSEYANVVATLGYGVDVTVTGERINGFYPVRVGTLSGYVSADYVSFNS | -1.23
18 | HMHQVHKIDGVKYYLHLVEKGNTLYGISKQYNVSVERIEKANTEALSDGLKENQTLLIPVTSDNKKT | -0.537
19 | HMHREITGSLAERNGRYTAILNLYDEDGKRRQKSIALGIPVKGNKRKAQAQLEELKRAYSLGLPQ | -0.346
20 | HMHRGTPASIIAAAKQYLTGGQTVELYEREGGPWTFRLRTYLSETPYPEKVRASVEALKPAGVVFLYELQS | -0.019
21 | HMHRIKRRNDTLVSALDSIAGIGAKRKKALLQHFGSVRAIKAVSAEEIAKVEGISPTLANQIFEAL | -1.07
22 | HMHRTMFYLDVDLAEGQSVKMAVHEDDDPGELAARFADEHQLKSRAMEKLRSVIEENVRLHRRNQ | -0.57
23 | HMHRTRNAERTRAAVLKAAAEVLAERGTGASLARIAEVAGVSKSGLLHHFANREQLIVALLED | -1.16
24 | HMHSIFPVIRSTSFPTKSNDGELFITSDHTAETRIYYALDLGNTYRLIDQKVMNEINLTESLVKETARF | -1.72
25 | HMHSILDDIEGIGPARRKALMRHYMNLDAIKSATVEELAAVPSMNEKSAKAVHNFFHQQKKD | 0.0285
26 | HMHSKQRDAIFENLRSRKDHPTAEEIYLSLKPAMPAISLATVYRNLAQLENEGLILRLGSGGSARYDGDT | -0.467
27 | HMHSLGDQVFETIKELIVNNTYQPGELLQIDKLAAEFGVSTTPVREALLRLEGLGLVDIERNKAAVVT | 0.447
28 | HMHSPLLDRYLAEVGWRLRHLSGAQREDILAGLREHIADLESAGVAPEEIVARLGSPESVADAAAGEF | -0.0802

Row | Sequence | soluble fraction (log2)
29 | HMHSPTFYVHVVGQVKVPGVYELEVGSRLFDAVIAAGGFKDDADQASVNLARPLSDGEQIVVLKLGDQ | -0.777
30 | HMHTADDFKQLAKQTSNGQLRTRYLALYLFKNGETRTQIATYLGVARGSVNTWVSNYLAHGLEGLQSKP | -2.95
31 | HMHTSEDLEKLLTRYFQSHESINRQQFEQLSGFTRTTASRRLKALVEAGKLKNIGLHHFPVYKPTEGNF | -0.485
32 | HMHVGVWIMNEKGEILLEQRASNKKVDPNKWARIGGHVDAGEKPIQAIQREILEEIGVKIPLENFIVLET | -0.266
33 | HMHVLAVDEALHKLTELNELHAKIVEMRFFSGMTVQEVADELGVSKRKIESEWTMIKAWLRKELN | -0.199
34 | HMHVSLSGKIHSELRKLILNGELKAGERLPSEPDLAHELGVSRNSLREAIGLLQREGLLLKKHGIGTFVTD | -1.42
35 | HMHVYQSLVTDRVVPGGGYRTTEAILSTEAWRNTLLEQAKRELIGVRNKYASLTELAKVWTAIDTVT | -1.65
36 | HMHYALTVDFPAALEARIDPAHRAALRGVLAHDPRPSYQSDPERLYGVAFAGKNVKFTVEDGVLTVRKIEE | -0.151
37 | HMHYKLIIFENHTKSTSLDITPEQARQILGVTDYTPEQYEILAEITNRPASYFMDDLVDYYVD | -2.33
38 | HMHYNMNYLENLTKTELFDLAKNKFGLTYAEMERHLSIPEGGARYAIKAEHSKYGSDIKKYLVEFLLE | -1.06
39 | HMIADPAKPDWTTILAPVTTGTTVTHKTFGQGTVTKLDKTKKYLTVSFAAGQKNFVFPNAFIDGFLK | -0.159
40 | HMIADSSSIHQDAKQQLHSYLRTNIQPLMRAGKQLDLKDILHHVTIRKPKLVQQLGMKQVQHMVQVLLD | -1.04
41 | HMIAGHLQEKKGFFYIVLSYPDAAGKRKTKWFPTKLSVKGNKKKAEVMLMDARKTFVPPETPL | -0.497
42 | HMIAITVGSKVRVKAGATFSDGTKPFTEVYNTVYDVQLLSRNGKEARIGIGEQWTGWMYISDLYPADQ | -3.42
43 | HMIAPQISSGKVNTKELNVRSGPATTFGIVKKLPLNAMVGIFEEKNGWFRIATGQWVSKTYVDL | -2.33
44 | HMIAVLEEGSRFRAINDISGKPFGPEMIIKNGQVIAAGKKILTKPKKLIGKKEGTKFNISGKEYVIKDI | -0.747
45 | HMIAWNFDTMKESLSEMERVDYQEFIKAFLSLELSISDRTILNQVYQDYMDEDDLSLISDELRV | 0.0602
46 | HMIDDNTIIQIGDSYSKSIRLLGEPIELKNRSLNQKSYFMAVYDFKGRRYRLFFENDVLFDILRD | -2.66
47 | HMIDELLDPTHRIMVRHPRVDYVSPGFLIGPDKDVILWGFTGGIIARLFDFLGWTRPWDQSHVQDLPPYML | -0.245
48 | HMIDENILSEEIKHYIETNNYAKDDKLPSERSLASLFNVSRALVRKSLISLVDVNYLYVKDKSGYYING | -0.0579
49 | HMIDEPENLIQEDKMVNIIYDLALLEGVKTFNSSNFQSVKSNDFVYKKYKIDSLQFAKSTQFYASDINR | 0.0618
50 | HMIDFDEIEILSSSKIEKIENSEYLKSSIFEKDSNQYIYRLSFENRDQLKNFKKEIEDIDQIKKIDVTY | 0.0545
51 | HMIDHKVIRSFRQKRNMTLQELAQKANLSVSYLSEIELGKKQPSLETLDKLSKALNISLEGL | -0.535
52 | HMIDHLPPQRAAVLAFLQRELVAGRSPSLAEIALAFGFASRNAAQKHVQALVADGLLEQATGRSRGLRLPG | -2.17
53 | HMIDIGSKIKKLRSKKSIEIGKKYTGAMLANELGISRSYLGDIESGRTVPNEIILGKIADIFDVDIYELIG | -1.06
54 | HMIDLPEAFIQQLKEAVDVGDVTGLRELLGQLRRRYPQQSALSDEAERLLREFDFERLAQLFEGLD | -1.67
55 | HMIDNFFTIRFNYSKINEVIRLLKEFNGEIFNKNYDKNEYIIEFSIPKKDAALLISKLKNITGLTIEQ | -1
